What was measured:
[1] = molecular target: KSHV ORF74 with L169W, L258V and two C-terminal threonines deleted (apo construct) (Kaposi's Sarcoma-associated Herpesvirus (HHV-8)) (UniProt Q98146); assay: cryo-EM structure
[2] = molecular target: wild-type KSHV ORF74 expressed in HEK293T cells (Kaposi's Sarcoma-associated Herpesvirus (HHV-8)) (UniProt Q98146)

Substance	stoichiometry N [1]	BRET2 (TRUPATH) G protein activation in HEK293T cells, Rluc8-Gαq / Gβ / GFP2-Gγ sensor, dose response to recombinant CXCL1: potency of CXCL1 [2] [pEC50]
KSHV ORF74 with L169W, L258V and two C-terminal threonines deleted (apo construct) (from UniProt Q98146 1-340) (receptor)	2	–
Gαq subunit (Rluc8-fused, TRUPATH) (from UniProt P50148 1-359) (natural protein)	–	6.7

Source: PMC12462484
